Experimental data: patent publication US8722856B2, “Anti-MUC1 antibody” (National University Corporation Hokkaido University, priority 2008, dated 2014)

How the values were obtained:
[1] = tested on: biotin-labeled T-47D culture supernatant; experiment: Affinity of antibody, Biacore, sensor chip SA; type: binding, human; details: biotin-labeled T-47D culture supernatant solid-phased
Method: In addition, a human breast cancer cultured cell strain T-47D (ATCC Number HTB-133) was cultured on a Dulbecco's modified Eagle medium (DMEM; manufacture by Invitrogen), the supernatant was concentrated with Amicon ultra-100 (manufactured by MILLIPORE), and substituted with a 20 mM HEPES buffer (pH 7.6) containing 0.15 M NaCl. Sulfo-NHS-Biotin (manufactured by PIERCE) was added to 200 μl of the T-47D culture supernatant, followed by reaction on ice for 2 hours. Thereafter, substitution with a 20 mM Tris buffer (pH 7.6) containing 0.15 M NaCl was performed with a PD-10 column (manufactured by GE Healthcare) to obtain a biotin-labeled T-47D culture supernatant.

[2] = target: T1, Biotin-2,3-ST(DT*R)-20 (Compound No. 16) (Homo sapiens, UniProt P15941); experiment: Hybridoma screening ELISA (selection of MUC1 antibody); type: binding; details: hybridoma culture supernatant
T1 construct: Synthesis of MUC1 Tn20-mer Glycopeptide; made in house; host or cells: chemical solid-phase synthesis with enzymatic sialylation
Method: Ten days after cell fusion, screening of a specific antibody-producing cell was performed. ELISA was used in screening is as follows. To each well of a 384-well microtiter plate (manufactured by Nunc) 35 μl of a Tris buffer (50 mM Tris-HCl, pH 7.5) containing 0.35 μg of an anti-mouse IgG antibody (manufactured by Shibayagi Co., Ltd.) was added to immobilize the antibody at 4° C. for 16 hours. After these wells were washed with 90 μl of a washing solution (physiological saline containing 0.01% Tween 20) once, 200 μl of BLOCK ACE (manufactured by Dainippon Sumitomo Pharma Co., Ltd.) was added, and this was allowed to stand at room temperature for 2 hours for blocking (an anti-mouse IgG antibody solid-phased plate). […] Then, after each well was washed with 90 μl of a washing solution three times, 25 μl of TMB+-Substrate-Chromogen (manufactured by DAKO) was added to develop a color at room temperature for 30 minutes, 25 μl of 0.05 M sulfuric acid was added to stop the reaction, and absorbance was measured at 450 nm. […] Using a mouse monoclonal antibody isotyping ELISA kit (manufactured by BD Bioscience), a subclass of the antibody was determined and, as a result, an isotype of 1B2 was IgG2a.

[3] = tested on: human breast cancer cell strains (T-47D)
Method: Antibody-dependant cytotoxicity was analyzed by a chromium release test. Human peripheral mononuclear cell (PBMC) was separated from peripheral blood of a healthy person using Ficoll-paque PLUS (manufactured by GE Healthcare) according to the package insert. DMEM containing 10% FCS was added to the separated PBMC so that the number became 4×10^6/ml.
50 μl of physiological saline containing 1.85 MBq ^51Cr (manufactured by Perkin Elmer) was added to 200 μl of DMEM containing 1×10^6 human breast cancer cell strains (T-47D) and human mammary gland epithelial cell strains (184A1) and the reaction was allowed to proceed at 37° C. for 1 hour. Thereafter, cells were washed with 10 ml of DMEM three times, and DMEM was added to 5×10^4 cells/ml. […] Thereafter, 100 μl of PBMC was added and the reaction was allowed to proceed at 37° C. for 2 hours. Thereafter, the plate was centrifuged at 500×g for 5 minutes at room temperature and γ-ray of 100 μl of the supernatant was measured with ARC-7001 (manufactured by Aloka). Antibody-specific cytotoxicity (%) was obtained using the following calculation equation. Cytotoxicity(%)=(experimental value−natural release)/(maximum release−natural release)×100

T1 sequence (P15941 136-155): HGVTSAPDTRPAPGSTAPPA

B1: 1B2: mouse monoclonal anti-MUC1 antibody, isotype IgG2a, clone from immunization with 2,3-ST(DT*R)-20 conjugated to BSA (antibody, V domains shown)
VH: MEWIWIFLFILSGTAGVQSQVQLQQSGAELARPGASVKLSCKASGYTFTNYGLSWVKQRTGQGLEWIGENHPGSGIIYHNEKFRGKATLTADKSSSTAYVQLSSLTSEDSAVYFCARSSGTRGFAYWGQGTLVTVSA
VL: MKLPVRLLVLMFWIPASSSDVLMTQTPLSLPVSLGDQASISCRSSQSIVHSNGNTYLEWYLQKPGQSPKLLIYKVSNRFSGVPDRFSGSGSGTDFTLKISRVEAEDLGVYYCFQGSHGPWTFGGGTKLEIKRA
modifications: Antibody 1B2 VH sequence; Antibody 1B2 VL sequence
What does the source list for B1?
Kd1 [1]: 0.0012 s⁻¹; ka1 [1]: 470000 M⁻¹ s⁻¹; Kd ([1]; read-out: dissociation constant KD): 2.6 nM; affinity for 2,3-ST(DT*R)-20 in screening [2]: strong affinity; Antibody-specific cytotoxicity [3]: about 15%
